From the DeepSol protein solubility set

Assay: soluble on expression in E. coli; label from the status in PepcDB or PDB records

Sequence | soluble on expression in E. coli
EVASYCDRVVAAVSSWMSTVKSTTEVSWNKLSFCDVLLKIITFGIYSPHETLAEKYSEKKLMDSFSPSLSQDKMDGEFAHANIDGISIRLCLNKGICSVFYLDGDKIQSTQLSSKEYNNLLSSLPPKQFNLGKVHTITAPVSGNFKTHKPAPEVIETAINCCTSIIPNDDYFPVKDTDFNSVWHDIYRDIRASDSNSTKIYFNNIEIPLKLIADLINELGINEFIDSKKELQMLSYNQLNKIINSNFPQQDLCFQTEKLLFTSLFQDPAFISALTSAFWQSLHITSSSVEHIYAQIMSENIENRLNFMPEQRVINNCGHIIKINAVVPKNDTAISASGGRAYEVSSSILPSHITCNGVGINKIETSYLVHAGTLPSSEGLRNAIPPESRQVSFAIISPDV | soluble
YKDSPKVLGQTYSSLLIDFTEGFHPNDLGIIVETIKEGGIIIAFSPPIEQWENLKSRWHEELVSEPYTVEDVTGRFFARFMRRTLQAEGIIIFD | not soluble
MVDGQPSLQQVLERVDEWMAKEGLLDPNVKSIFVTCGDWDLKVMLPGQCQYLGLPVADYFKQWINLKKAYSFAMGCWPKNGLLDMNKGLSLQHIGRPHSGIDDCKNIANIMKTLAYRGFIFKQTSKPF | not soluble
MGSDKIHHHHHHMERPTGVYFQTMTMKQIRERLKQCDLIIIPVGSTENHGPNAPTGEDTFLVTRMAEQVALKTGCTVAEPIWYGYHPYHHIGMPGTVPVKDEAFIDYLVSVIAGFWNTGFRKQILLNGHGQEFVIPIAIHKFAKIFQVPAIIINLNWYHAIQDKFKTKEEGGPYETPFIHADEVETSWSLALFPEFMHQEWAVDTEPKGFLPEGHIDKAGNLLHRPIAWYGHVGGGPIEVVAYPEGVVGKATLASAEKAKEGVEALLDYLEKLVRDIMERFPAGKLPPAEMLSQRPKEELEALTKEPLTEGWRNLYTAGNLWG | not soluble
MDRRFPPFSPFFNHGRRFFDDVDFDRHMIRPYWADQTMLTGHRVGDAIDVVNNDQEYNVSVDVSQFEPEELKVNIVDNQLIIEGKHNEKTDKYGQVERHFVRKYNLPTGVRPEQIKSELSNNGVLTVKYEKNQEQQPKSIPITIVPKRN | not soluble
MGSDKIHHHHHHMHTDVNQLFAALWDDYVEMTPSAAKVHQLLAKGETIINDHIALRTFNIAKVNLSVLAKHFESLGYVACGDYDFEAKKLKAKHFEHPDPTQPKVFISELMVEAFSPELQAIVHGLVEQVDEAATTADNFLYSGRHWELDYATYEQLLAESEYAAWVAAFGYRANHFTVSINHLPGYNTILEVNETLKQGDFVLNSVGGEVKGSADVLLEQSSTMADKVNVAFKDVQKTIPSCFYEFALRYPKADGELYTGFVAASADKIFESTNNAG | not soluble
MTLTVAAPCVQTVTEPSKMEMQAESTSHITIRFTEMVGDAQKPTYGSISSAGADLYSAEDVVVPANGKLCVSTGLQIELPIGYYGRVAPRSGLAAKHFIDVGAGVIDSDYRGEVKVLLFNFNTTAFEVKTGDRIAKLICEQIGNGTYEEVKSLPSTNRGAGGFGSTGESTMNSETANPATNLERITVRFTQLNENAQTPTYGSEEAAGADLYSAEDITVPAHGKCCVSTGIQMELPFGYYGRVAPRSGLAAKHFIDVGAGVIDSDYRGEVKVLLFNFTDNAFEVKKGDRIAQLICEKIGHCVYEAASELENTDRGAGGFGSTGQNTMEAEPALKKSKTEQIKTSATSVTIQITKSNDNAQMPTYGSAEAAGADLYSAEDVTVPARGKLCVSTGIQMALPIGYYGRVAPRSGLAAKHFIDVGAGVIDSDYRGEVKVLLFNFGENDFEVKKGDRIAQLVCEQIALCTYSKVESLEVTERGAGGFGSTGQYITL | not soluble
MQQEEPNKYVKELTQEKYKYGFTTEVHTDVIERGLNEDVVRLISSKKDEPEWLLEFRLKAYRHWLTLEMPTWAHLRIPEIDYQAISYYADPTKKKEGPKSMDEVDPELIKTFNKLGIPLEEQMALSGMAVDAVMDSVSVKTTFKETLMEKGIIFCSFSEAVREHPDLVKKYMGSVVGYRDNFFAALNSAVFSDGSFVYIPKGVRCPMELSTYFRINARNTGQFERTLIVADDDSYVSYLEGCTAPMRDENQLHAAIVEIVVHDRAEVKYSTVQNWYPGDAEGKGGVYNFVTKRGNCKGVDSKLSWTQVETGSAITWKYPSCILTGDNSTAEFYSVAVTNNYQQADTGTKMIHLGKNTRSTIVSKGISAGHSENSYRGLVRVAEKADNARNYSQCDSLLLGDKCGAHTFPYMDIHNETAVVEHEATTSKISEDQIFYCNQRGIPTEDAIGLIVNGYAKEVLNKLPMEFAVEAQKLLTISLEGSVG | not soluble
REQFGRDVMVVVDLSGSMAEKDFTSTNGLKISRLDAVKKVLNDFVKTRKGDRLGLILFGDAAFVQTPFTADHKVWLDLLNQTHVEMAGKSTHLGDAIGLTIKRFEDSNNSQPLSTTSREKVAIILTDGNDTDSYVPPMDAAKVAKVKGVRIHMIAIGDPQTVGEQALDMDTINTIADASGGQAFQALNQDELINAYAEISKLEPQLYQSTTYRT | not soluble
MNDRSSRRRTMKDDETFEISIPFDEAPHLDPQIFYSLSPSRRNFEEPPEAASSALALMNSVKTQLHMALERNSWLQKRIEDLEEERDFLRCQLDKFISSARMEAEDHCRMKPGPRRMEGDSRGGAGGEASDPESAASSLSGASEEGSASERRRQKQKGGASRRRFGKPKARERQRVKDADGVLCRYKKILGTFQKLKSMSRAFEHHRVDRNTVALTTPIAELLIVAPEKLAEVGEFDPSKERLLEYSRRCFLALDDETLKKVQALKKSKLLLPITYRFKR | soluble
FLQNAVILGATENGLRLAEYLLEHQDIRSGVIGFIDDRIGRMPKTVANLPLLGNTSDLERLIREEKVTQVLVALPWTAENRMDYIIRELRRLPVNVLLVPDMIAFRHT | not soluble
MNKLLSYYQKELAFLRKQGIEFAKKYPKVARRLGYNQGGSEDPHVQRLTESFAFLSSKIHQRLDEDLPELMEALLRNLAPQFLYNYPSSCIVSFEPDRKSSGITSTYRVPSGTSLYSRYKYKTICQFRTVYPLTIVPATVNKARIHYDNSSSLWKIELNLDVFDGANFSLDFVRFYLNGPATVTGIIYTLLCDEVDNIVLQRNNDVLYDISANISGAGFYESEVTLPQKGNVSYIHNLILDYFSFPERFNFIDIEFDSGIELCSGDSVRIEITLKSSAEKYEPDRIERNVSERLFKVNCSPVVNLFEKKTEPLRLSDGQDEYQVNTDLYSRNEVLIWDINKVTLHRYENDIVKQFPLKNLFGLEHSVIKQSCNIFWHSSCYRSSSERGNFEESVYIRLSDDGGAQSCIMTGDVLSIDAICTNGNIPSSINNGDPDGDFDCDIDIAQLRITALNRPSRMLPAMALKGMNWRIVSQLSLNFVLLSGTDGAMKLREMLSIYNYNNNHSISIFIEWIKELQITPVSSRLPGIYPPVTARGIDITVTLSKDADMHPECFMFCSFLDHFLGLHAPVNSFTRMITVIEHEEHTRRVWPIRAGKLTWL | not soluble
GHHHHHHHHHHGLVPRGSHMYFQKARLIHAELPLLAPFKTSYGELKSKDFYIIELINEEGIHGYGELEAFPLPDYTEETLSSAILIIKEQLLPLLAQRKIRKPEEIQELFSWIQGNEMAKAAVELAVWDAFAKMEKRSLAKMIGATKESIKVGVSIGLQQNVETLLQLVNQYVDQGYERVKLKIAPNKDIQFVEAVRKSFPKLSLMADANSAYNREDFLLLKELDQYDLEMIEQPFGTKDFVDHAWLQKQLKTRICLDENIRSVKDVEQAHSIGSCRAINLKLARVGGMSSALKIAEYCALNEILVWCGGMLEAGVGRAHNIALAARNEFVFPGDISASNRFFAEDIVTPAFELNQGRLKVPTNEGIGVTLDLKVLKKYTKSTEEILLNKGWS | soluble
MGHHHHHHSHMSPDQFLLTVSALQHARNSGEFAYPCRPQTEITDVWGPSISYPRKVLNFKGKSIQRAVDRLRLSNPPIDVKRTSIPLEIQKLQPNLKISLHSPRAQSTIPEPMIIRSRFSGSLKGGDQVTSSIERAVCSTGPLTSMQVIKPNRMLAPQVGTATLSLKKERPRIYTALDPFRVNAEFVLLTVKEEKEHQEAKMKEYQARESTGVVDPGKASKAAWIRKIKGLPIDNFTKQGKTAAPELGQNVFI | soluble
MEDKLVTLAILTYTKAQILKNVLENEGIETYIHNVNQIQPVVSSGVRLRIKESDLPRALKITESSTWLSESIVGEKTPKVDSKSNKILIPVDFSNYSMKACEFGFNLAKTENSEVILLHVYFTPIYASSLPYGDVFNYQIGDEESVKTIIQQVHSDLNALSDKIKEKVASGEFPDIKYSCILREGIPEEEILRYAKEQRPKVIIMGTRGKSQKDIDLIGSVTAEIIDRSRTAVLAIPENTPFKEFNEVKRIAFLTNFDQRDLIAFEAFFNTWKSFHFSVSLIHLAESKDTWNEIKLAGIKDYFQKQYPGLEIHYDVVMNDNLLKGLDKYIKDNQIDIITLTSYKRNIFARLFNPSIARKMIFHSDTPLLVING | not soluble
MVPCWNHGNITRSKAEELLSRTGKDGSFLVRASESISRAYALCVLYRNCVYTYRILPNEDDKFTVQASEGVSMRFFTKLDQLIEFYKKENMGLVTHLQYPVPLEEEDTGDDPEEDTVESVVSPPELPPRNIPLTASSCEAKEVPFSNENPRATETSRPSLSETLFQRLQSMDTSGLPEEHLKAIQDYLSTQLAQDSEFVKTGSSSLPHLKKLTTLLCKELYGEVIRTLPSLESLQRLFDQQLSPGLRPRPQVKG | soluble
MQDRNFDDIAEKFSRNIYGTTKGQLRQAILWQDLDRVLAEMGPQKLRVLDAGGGEGQTAIKMAERGHQVILCDLSAQMIDRAKQAAEAKGVSDNMQFIHCAAQDVASHLETPVDLILFHAVLEWVADPRSVLQTLWSVLRPGGVLSLMFYNAHGLLMHNMVAGNFDYVQAGMPKKKKRTLSPDYPRDPAQVYLWLEEAGWQIMGKTGVRVFHDYLREKYQQRDCYEALLELETRYCRQEPYITLGRYIHVTARKPQSKDKV | not soluble
MGSDKIHHHHHHMKTIKGPGIFLAQFIGTQAPFNTLAGIAQWAAGLGYKALQIPCNHPAIFDVERAAASQTYCDEVSGILAEHGLVISELSTHLEGQLVAVHPAYDAAFDAFAPAALHGDPQARQRWAVEKVRQAAVASGRLGLQAHATFSGALAWPFFYPWPPHNQPLLDEAFAELARRWRPLLDLFDEQGVDVCYEIHPGEDLHDGVTFERFLALVDNHPRCNMLYDPSHLHLQQMDYLAYIDIYHARIKAFHVKDAEFRRNGRNGVYGGYQPWQQRAGRFRSPGDGQIDFKGVFSKLTEYDFAGWAVLEWECCLKDSETGAREGSEFIRRHIIPVAGRAFDDFAAGGRE | not soluble
MKNEDGIINILLMGTDARPNEDSSRSDAMMILTIDNKHNDIKLTSLARDSYVDIPGHGKQKLTHAYAYGQADLLIQTIEENFNIDIQNYACVNFESFMYIIDAIGGVEVTVEKGEIRELNKFIPETYKWNKSDDKGSIQYIRNSGKQTLNGYQALSFARIRHNDTAFARDGRQRQIIQAIIKKTETLPVTKYPGLLDAVLPYVKTNMKPNAILSLGAQVLKMGDLNIKQFEFPIDDEIHSTGGIYGKAGWVLRFDPDTLDILHDFIFNDIEFKQLEHHHHHH | soluble
MNPYQAHRIKKLKYQLENAESYEEWKSTALQLDEETGLQEWKYDNCSAYFDAELISYRLNLLRKYRLQQRVMDSVYLLQEGLTHDIANIGHPMLFAATYVGTKQIIEDYIEEVSLSLAFIAASQCQTLTVAEKLKFFKNCQKTYGLEHHHHHH | not soluble
